Experimental findings from patent US20240262923A1 (Sanofi, published 2024) are described below.

Test [1] has as its target T1, human His-tagged 4-1BB recombinant protein (human, UniProt Q07011 24-186).
T1 construct: also called human 4-1BB; h4-1BB; not shown: His tag
The test can be described thus: ELISA binding on 4-1BB-his, bivalent monoparatopic Fab-like constructs. Background: ELISA stands for enzyme-linked immunosorbent assay.

Test [2] deals with T2, human PD-1 expressed on cells (300.19 pre-B cells, PD-1 NFAT-luc2 Jurkat cells, primary T-cells) (human, UniProt Q15116 25-288). The test can be described thus: cell-based or functional assay.
Test [3] has as its target T3, cynomolgus monkey 4-1BB expressed on 300.19 pre-B cells (cynomolgus monkey, UniProt A9YYE7 24-254).
T3 construct: whole, on cells; also called cy4-1BB; Pre-B cy4-1BB
The test can be described thus: flow cytometry on 300.19 pre-B cells.

The target in test [4] is T4, cynomolgus monkey PD-1 expressed on 300.19 pre-B cells (cynomolgus monkey, UniProt B0LAJ3 25-288).
T4 construct: also called cyPD-1; Pre-B cyPD-1
The test can be described thus: flow cytometry on 300.19 pre-B cells.

The target in test [5] is T2, human PD-1 expressed on cells (300.19 …). The test can be described thus: flow cytometry on 300.19 pre-B cells. For orientation: Flow cytometry measures light scatter and fluorescence of single cells or particles in a stream.
In test [6] the target is T5, cynomolgus monkey PD-1 (SPR analyte) (cynomolgus monkey, UniProt B0LAJ3 25-170).
T5 construct: also called cyPD-1
The test can be described thus: SPR, KD on cyPD-1 against KD on hPD-1. Background: SPR reads the build-up and loss of mass on a sensor chip optically.

Test [7] concerns the target T2, human PD-1 expressed on cells (300.19 …). Put plainly: flow cytometry on PD-1+ Jurkat T-cells.
The target of test [8] is T6, cynomolgus monkey 4-1BB (SPR analyte) (cynomolgus monkey, UniProt A9YYE7 24-186).
T6 construct: also called cy4-1BB
T6 sequence: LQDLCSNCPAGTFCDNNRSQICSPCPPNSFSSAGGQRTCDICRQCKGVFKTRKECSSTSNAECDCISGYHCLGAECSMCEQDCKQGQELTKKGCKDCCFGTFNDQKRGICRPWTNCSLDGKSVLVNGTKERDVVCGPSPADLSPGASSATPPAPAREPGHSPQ
Put plainly: SPR, KD on cy4-1BB against KD on h4-1BB.

Test [9] has as its target T3, cynomolgus monkey 4-1BB expressed on …. The test can be described thus: flow cytometry on 300.19 pre-B cells, cy4-1BB.
Test [10] addresses T4, cynomolgus monkey PD-1 expressed on …. The test can be described thus: flow cytometry on 300.19 pre-B cells, cyPD-1 against hPD-1.
The target in test [11] is T3, cynomolgus monkey 4-1BB expressed on …. The test can be described thus: flow cytometry on 300.19 pre-B cells, cy4-1BB against h4-1BB.
The target of test [12] is T7, human PD-1 (SPR analyte) (human, UniProt Q15116 25-167, limits assumed).
T7 construct: Soluble analyte in SPR; also called hPD-1
The test can be described thus: SPR (Biacore 8K), binder captured on anti-Fc chip, target as analyte, 1:1 model.

In test [13] the target is T6, cynomolgus monkey 4-1BB (SPR analyte). Described as above.
The target in test [14] is T5, cynomolgus monkey PD-1 (SPR analyte). The test is described as above.
For test [15], the target named is T7, human PD-1 (SPR analyte). The description is as above. This is another data set of the same source.
Test [16] deals with T3, cynomolgus monkey 4-1BB expressed on …. The test can be described thus: flow cytometry on 300.19 pre-B cells, cy4-1BB, against Optimized Construct #3.
Test [17] concerns the target T8, human OX40 (human, UniProt P43489 29-216).
T8 construct: also called hOX40
T8 sequence (looked up): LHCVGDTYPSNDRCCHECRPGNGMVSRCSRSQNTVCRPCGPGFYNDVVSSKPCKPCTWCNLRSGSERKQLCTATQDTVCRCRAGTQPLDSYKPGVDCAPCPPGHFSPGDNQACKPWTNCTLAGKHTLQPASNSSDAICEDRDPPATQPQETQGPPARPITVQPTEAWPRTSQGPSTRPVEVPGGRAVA
The test can be described thus: binding assay (FIG. 2), bivalent Fab-like.

Test [18] has as its target human CD40 (human, UniProt P25942 21-193). The test can be described thus: binding assay (FIG. 2), bivalent Fab-like.
For test [19], the target named is T9, extracellular domain of human 4-1BB (amino acid residues 24-186 of SEQ ID NO: 13) (human, UniProt Q07011 24-186).
T9 construct: Used for X-ray crystallography
Put plainly: X-ray crystallography of the complex.

For test [20], the target named is T1, human His-tagged 4-1BB recombinant …. The test can be described thus: binding assay (FIG. 2), bivalent monoparatopic Fab-like.

Where two headings read alike, the source gives them in different places.

T7 sequence (Q15116 25-167 limits assumed): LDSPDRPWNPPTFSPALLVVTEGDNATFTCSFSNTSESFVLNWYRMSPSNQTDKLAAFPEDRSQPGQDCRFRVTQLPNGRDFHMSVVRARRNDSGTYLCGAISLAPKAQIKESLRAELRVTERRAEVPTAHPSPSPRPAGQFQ
T5 sequence (B0LAJ3 entry or part of it limits assumed): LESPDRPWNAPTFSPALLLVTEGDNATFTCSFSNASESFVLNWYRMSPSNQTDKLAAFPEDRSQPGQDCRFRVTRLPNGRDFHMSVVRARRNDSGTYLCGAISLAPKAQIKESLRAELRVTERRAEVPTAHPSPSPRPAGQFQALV
T2 sequence (Q15116 25-288 limits assumed): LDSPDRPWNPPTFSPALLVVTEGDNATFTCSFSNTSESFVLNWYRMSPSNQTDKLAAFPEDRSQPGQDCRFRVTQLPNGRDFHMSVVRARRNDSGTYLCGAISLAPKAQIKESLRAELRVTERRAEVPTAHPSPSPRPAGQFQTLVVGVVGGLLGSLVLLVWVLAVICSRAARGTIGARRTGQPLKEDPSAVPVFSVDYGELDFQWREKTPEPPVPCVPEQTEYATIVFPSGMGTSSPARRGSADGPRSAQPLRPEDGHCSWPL
T4 sequence (B0LAJ3 entry or part of it limits assumed): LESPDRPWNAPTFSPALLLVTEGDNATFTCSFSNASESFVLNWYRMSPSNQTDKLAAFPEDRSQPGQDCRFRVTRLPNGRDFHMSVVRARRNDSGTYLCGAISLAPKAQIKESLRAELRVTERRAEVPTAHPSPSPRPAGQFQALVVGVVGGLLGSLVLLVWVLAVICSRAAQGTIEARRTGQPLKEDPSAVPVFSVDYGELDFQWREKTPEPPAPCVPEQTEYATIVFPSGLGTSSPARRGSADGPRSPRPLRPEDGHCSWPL
human CD40, sequence (P25942 21-193 limits assumed): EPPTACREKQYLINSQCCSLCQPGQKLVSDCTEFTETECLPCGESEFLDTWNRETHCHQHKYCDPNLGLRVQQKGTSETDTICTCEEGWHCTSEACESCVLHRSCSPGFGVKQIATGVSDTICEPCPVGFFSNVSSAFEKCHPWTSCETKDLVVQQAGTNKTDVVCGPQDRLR

B1: anti-4-1BB clone #5d VHH, bivalent monoparatopic Fab-like construct (other)
chain 1: QVQLQESGGGLVQPGGSLRLSCVASGFTFANYRMSWVRQAPGKGLEWVSSIKKSGNRTTYSDSVKGRFTISRDNAKNTMFLQMDNLTPEDTAVYFCARGTRYKMSTSGPGTQVTVSS
chain 2: B1 chain 1
notes: not shown: human CL (lambda) constant domain, tag if any; human IgG1 CH1 domain, HA and 6-His tags
Take B1: in test [1], the binding result is “binds”.

B2: Optimized Construct #3 (bispecific antibody)
heavy: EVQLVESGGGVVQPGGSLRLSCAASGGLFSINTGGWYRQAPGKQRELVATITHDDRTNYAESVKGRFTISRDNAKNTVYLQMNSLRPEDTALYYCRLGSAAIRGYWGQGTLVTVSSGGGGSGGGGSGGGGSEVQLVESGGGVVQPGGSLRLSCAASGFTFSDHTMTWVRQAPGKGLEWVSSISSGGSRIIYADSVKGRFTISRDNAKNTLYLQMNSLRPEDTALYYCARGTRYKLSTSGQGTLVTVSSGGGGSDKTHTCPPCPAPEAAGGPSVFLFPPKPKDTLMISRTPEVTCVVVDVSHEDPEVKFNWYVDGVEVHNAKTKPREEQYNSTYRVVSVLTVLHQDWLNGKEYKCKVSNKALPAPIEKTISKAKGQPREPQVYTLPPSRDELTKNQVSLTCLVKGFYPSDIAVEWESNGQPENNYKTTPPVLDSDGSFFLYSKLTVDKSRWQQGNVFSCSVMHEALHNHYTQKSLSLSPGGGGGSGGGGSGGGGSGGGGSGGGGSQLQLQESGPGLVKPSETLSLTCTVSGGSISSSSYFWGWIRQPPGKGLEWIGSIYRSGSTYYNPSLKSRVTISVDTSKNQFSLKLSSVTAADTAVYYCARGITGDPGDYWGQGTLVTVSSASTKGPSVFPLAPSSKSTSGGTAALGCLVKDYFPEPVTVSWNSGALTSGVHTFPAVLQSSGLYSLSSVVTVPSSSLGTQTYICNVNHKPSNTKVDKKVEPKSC
light: EIVLTQSPATLSLSPGERATLSCGASQSVPINFLAWYQQKPGLAPRLLIYEASSRHTGIPDRFSGSGSGTDFTLTISRLEPEDFAVYYCGQYGSSPYTFGQGTKLEIKRTVAAPSVFIFPPSDEQLKSGTASVVCLLNNFYPREAKVQWKVDNALQSGNSQESVTEQDSKDSTYSLSSTLTLSKADYEKHKVYACEVTHQGLSSPVTKSFNRGEC
notes: also called Optimized Construct #3 (unmasked); naked
In the case of B2, the “EC50 value (nM), PD-1 reporter assay” value in test [2] came out at 1.39 nM. The EC50 in test [3] is 0.91 nM; in [4] it was 1.45 nM; in [5] it was 1.4 nM; in test [7], 0.5 nM. In addition, the “Ratio KD cyno/human” value came out at 2 fold in [6] and 1.9 fold in test [8]. For the same molecule, in [9], the “masking efficacy (masked EC50/naked EC50)” value was 1 fold. Besides, the entries for the “Ratio EC50 cy/h” value in test [10] and in test [11] were 1.04 fold and 0.3 fold, respectively. The Kd in test [12] was 4.54 nM; in test [13], 21.1 nM; in [14], 14.9 nM; in test [15], 7.29 nM.

B3: MC1 (conditionally-active, masked Optimized Construct #3; MM1 and cleavable linker #1) (bispecific antibody)
heavy: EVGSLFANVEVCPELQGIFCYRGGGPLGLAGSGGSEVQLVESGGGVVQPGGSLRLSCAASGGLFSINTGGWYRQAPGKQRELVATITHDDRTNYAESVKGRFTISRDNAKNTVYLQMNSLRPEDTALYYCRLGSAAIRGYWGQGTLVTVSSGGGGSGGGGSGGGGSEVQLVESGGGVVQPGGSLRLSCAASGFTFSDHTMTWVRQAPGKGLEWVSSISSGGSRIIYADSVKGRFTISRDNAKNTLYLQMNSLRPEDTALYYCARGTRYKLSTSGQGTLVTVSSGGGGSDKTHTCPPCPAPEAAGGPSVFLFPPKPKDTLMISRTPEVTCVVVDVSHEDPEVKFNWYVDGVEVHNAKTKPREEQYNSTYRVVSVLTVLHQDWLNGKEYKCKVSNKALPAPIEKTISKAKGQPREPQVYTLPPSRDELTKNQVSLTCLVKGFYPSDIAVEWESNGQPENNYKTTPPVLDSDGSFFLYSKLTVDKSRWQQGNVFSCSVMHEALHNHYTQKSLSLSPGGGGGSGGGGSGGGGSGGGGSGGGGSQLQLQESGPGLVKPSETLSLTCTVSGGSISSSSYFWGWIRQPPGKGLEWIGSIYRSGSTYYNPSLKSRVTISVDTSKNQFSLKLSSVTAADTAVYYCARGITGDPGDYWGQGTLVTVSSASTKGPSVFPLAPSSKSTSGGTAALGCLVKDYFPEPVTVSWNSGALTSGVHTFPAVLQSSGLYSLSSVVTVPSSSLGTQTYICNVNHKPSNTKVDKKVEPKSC
light: B2 light
B3: the “EC50 value (nM), PD-1 reporter assay” value in test [2] was 2.43 nM. In addition, the EC50 in test [3] turned out to be 6.24 nM; in test [4], 1.67 nM; in test [5] it was 1.65 nM; in test [7], 0.7 nM. Further, the “Ratio KD cyno/human” value in test [6] turned out to be 2.3 fold. Moreover, the “Ratio EC50 cy/h” value in test [10] came to 0.99 fold; in test [11], 0.07 fold. The “masking efficacy (masked EC50/naked EC50)” value in test [16] was 7 fold. The Kd was determined as 14.9 nM in [14] and 6.42 nM in test [15].

B4: MC3 (conditionally-active, masked Optimized Construct #3; MM1 and cleavable linker #2) (bispecific antibody)
heavy: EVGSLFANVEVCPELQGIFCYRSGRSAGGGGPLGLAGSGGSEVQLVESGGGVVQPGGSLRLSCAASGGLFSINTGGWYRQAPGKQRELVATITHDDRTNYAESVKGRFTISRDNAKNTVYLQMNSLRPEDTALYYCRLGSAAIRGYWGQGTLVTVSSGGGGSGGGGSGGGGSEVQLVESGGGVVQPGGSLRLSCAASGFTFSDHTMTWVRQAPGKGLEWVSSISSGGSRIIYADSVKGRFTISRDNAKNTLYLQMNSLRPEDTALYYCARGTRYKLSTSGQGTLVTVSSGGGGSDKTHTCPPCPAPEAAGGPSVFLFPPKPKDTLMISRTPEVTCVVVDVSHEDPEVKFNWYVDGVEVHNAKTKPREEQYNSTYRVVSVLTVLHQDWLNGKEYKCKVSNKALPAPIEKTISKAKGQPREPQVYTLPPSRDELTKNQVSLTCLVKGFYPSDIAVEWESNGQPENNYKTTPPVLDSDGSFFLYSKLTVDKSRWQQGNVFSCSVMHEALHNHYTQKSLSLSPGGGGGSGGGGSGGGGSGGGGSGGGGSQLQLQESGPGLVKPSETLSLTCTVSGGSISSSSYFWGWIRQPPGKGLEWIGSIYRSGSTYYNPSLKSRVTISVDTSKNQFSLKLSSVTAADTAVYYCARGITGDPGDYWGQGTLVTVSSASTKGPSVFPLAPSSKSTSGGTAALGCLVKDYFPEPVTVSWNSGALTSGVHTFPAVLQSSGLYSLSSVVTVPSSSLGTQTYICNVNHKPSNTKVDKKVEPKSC
light: B2 light
With B4, the “EC50 value (nM), PD-1 reporter assay” value in test [2] came to 2.62 nM. Further, the half-maximal effective concentration (EC50) in [3] is 5.9 nM; in test [4], 1.4 nM; in [5], 1.76 nM; in test [7] it was 0.89 nM. The “Ratio KD cyno/human” value in test [6] amounted to 2 fold. In addition, the “Ratio EC50 cy/h” value in [10] stood at 0.8 fold; in test [11], 0.23 fold. The “masking efficacy (masked EC50/naked EC50)” value in test [16] was found to be 6 fold. Moreover, the Kd is 13.4 nM in test [14] and 6.73 nM in test [15].

B5: MC4 (conditionally-active, masked Optimized Construct #3; MM2 and cleavable linker #2) (bispecific antibody)
heavy: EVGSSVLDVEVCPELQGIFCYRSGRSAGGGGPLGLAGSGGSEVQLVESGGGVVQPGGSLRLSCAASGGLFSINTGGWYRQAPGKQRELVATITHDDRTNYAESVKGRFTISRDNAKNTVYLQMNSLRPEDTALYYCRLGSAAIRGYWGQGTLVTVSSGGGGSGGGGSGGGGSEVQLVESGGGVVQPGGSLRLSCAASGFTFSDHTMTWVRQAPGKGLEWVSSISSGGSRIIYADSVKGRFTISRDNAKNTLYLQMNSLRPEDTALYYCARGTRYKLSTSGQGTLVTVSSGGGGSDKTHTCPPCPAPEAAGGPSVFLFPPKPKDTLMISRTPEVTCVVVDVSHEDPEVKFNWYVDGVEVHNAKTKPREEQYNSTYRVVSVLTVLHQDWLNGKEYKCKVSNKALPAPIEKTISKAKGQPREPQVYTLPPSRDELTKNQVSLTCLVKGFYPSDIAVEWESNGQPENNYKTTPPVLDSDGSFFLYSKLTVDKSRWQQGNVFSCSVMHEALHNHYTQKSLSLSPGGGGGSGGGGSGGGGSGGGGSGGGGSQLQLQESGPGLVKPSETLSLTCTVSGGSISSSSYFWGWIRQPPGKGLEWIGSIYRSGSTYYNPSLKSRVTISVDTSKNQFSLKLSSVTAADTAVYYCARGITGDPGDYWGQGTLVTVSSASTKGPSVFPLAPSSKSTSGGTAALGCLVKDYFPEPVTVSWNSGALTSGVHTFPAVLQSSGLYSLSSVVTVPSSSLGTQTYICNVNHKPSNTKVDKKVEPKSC
light: B2 light
For B5, the “EC50 value (nM), PD-1 reporter assay” value in [2] was found to be 2.81 nM. Besides, the EC50 in test [3] is 9.81 nM; in test [4], 4.8 nM; in [5], 2.68 nM; in [7], 0.72 nM. Also, in test [6], the “Ratio KD cyno/human” value was 2.7 fold. Besides, the “Ratio EC50 cy/h” value is 1.79 fold in test [10] and 1.01 fold in [11]. In addition, the “masking efficacy (masked EC50/naked EC50)” value in test [16] is 11 fold. For the same molecule, the Kd in test [14] was determined as 18.3 nM; in [15], 6.82 nM.

B6: MC2 (conditionally-active, masked Optimized Construct #3; MM2 and cleavable linker #1) (bispecific antibody)
heavy: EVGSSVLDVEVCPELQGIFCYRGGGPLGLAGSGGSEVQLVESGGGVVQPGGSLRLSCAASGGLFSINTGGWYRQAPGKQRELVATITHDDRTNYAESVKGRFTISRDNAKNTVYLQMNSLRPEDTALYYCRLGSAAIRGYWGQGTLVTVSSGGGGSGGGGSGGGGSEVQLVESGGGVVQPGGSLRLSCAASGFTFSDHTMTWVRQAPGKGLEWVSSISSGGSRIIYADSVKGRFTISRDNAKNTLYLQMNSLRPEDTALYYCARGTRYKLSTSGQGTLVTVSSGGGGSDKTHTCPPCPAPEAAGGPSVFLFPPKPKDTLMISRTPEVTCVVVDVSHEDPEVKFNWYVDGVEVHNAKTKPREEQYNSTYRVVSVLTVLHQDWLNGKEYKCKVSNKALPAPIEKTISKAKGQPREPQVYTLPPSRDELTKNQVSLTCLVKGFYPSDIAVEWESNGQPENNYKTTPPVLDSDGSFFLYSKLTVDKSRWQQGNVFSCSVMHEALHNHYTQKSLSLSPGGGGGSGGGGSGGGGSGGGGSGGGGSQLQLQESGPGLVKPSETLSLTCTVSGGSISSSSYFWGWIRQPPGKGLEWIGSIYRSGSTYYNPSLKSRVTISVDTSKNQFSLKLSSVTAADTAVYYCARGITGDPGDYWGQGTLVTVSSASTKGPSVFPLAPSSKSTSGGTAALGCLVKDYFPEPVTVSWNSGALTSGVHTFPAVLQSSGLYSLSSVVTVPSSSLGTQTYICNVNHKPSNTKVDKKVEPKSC
light: B2 light
For the molecule B6, the “EC50 value (nM), PD-1 reporter assay” value in test [2] was determined as 2.54 nM. In addition, the EC50 in test [3] is 16.6 nM; in test [4] it was 1.5 nM; in test [5], 2.97 nM; in test [7], 0.78 nM. Also, in [6], the “Ratio KD cyno/human” value amounted to 2.2 fold. Besides, the entries for the “Ratio EC50 cy/h” value in [10] and in [11] were 0.51 fold and 2.44 fold, respectively. Also, the “masking efficacy (masked EC50/naked EC50)” value in test [16] turned out to be 18 fold. For the same molecule, the Kd in test [14] was 17.3 nM; in test [15] it was 7.73 nM.

B7: anti-4-1BB VHH Clone #5, bivalent monoparatopic Fab-like construct (other)
chain 1: QVQLQESGGGLVQPGGSLRLSCAASGFTFSDHTMTWVRQAPGKGLEWVSSISSGGSRIIYADSVKGRFTISRDNAKNTLYLQMNNLRPEDTAVYFCARGTRYKMSTSGPGTQVTVSS
chain 2: B7 chain 1
notes: as for B1
Consider B7, for which the binding result in test [17] and in test [18] was “no binding” in each case. Besides, the “EC50 (read off the curve)” value in [1] is around 3 nM.

B8: anti-4-1BB clone #5 VHH (VHH)
VHH: B7 chain 1
As for B8, the binding result in test [19] is “binds”.

B9: anti-4-1BB clone #2 VHH (VHH)
VHH: QVQLQESGGGLVQPGGSLRLSCAASGGLFSINTGGWYRQAPGKQRELVATITHDDRTNYAESVKGRFTLSRDNAKNTVYLQMNSLKPEDTAVYYCRLGSAAIRGYWGQGTQVTVSS
Turning to B9, in test [19], the binding result is on record as “binds”.

B10: anti-4-1BB VHH Clone #2, bivalent monoparatopic Fab-like construct (other)
chain 1: B9 VHH
chain 2: B9 VHH
notes: as for B1
For the molecule B10, the figures for the binding result in [17], in test [18] and in test [20] were “no binding”, “no binding” and “binds”, respectively.

B11: anti-4-1BB clone #5a VHH, bivalent monoparatopic Fab-like construct (other)
chain 1: QVQLQESGGGWVQPGGSLRLSCAASGFAFRDFTMSWARQAPGERFEWISSINPSGGSQSYLPSVKGRFTISRDNAKNTMFLQMDNLTPEDTAVYFCARGTRYKMSTSGPGTQVTVSS
chain 2: B11 chain 1
notes: as for B1
On to B11, for which the “EC50 (read off the curve)” value in [1] was around 0.5 nM.

A word on the EC50: it is the concentration at which the effect is half-maximal. As usually defined, the Kd is the equilibrium constant for the complex coming apart. For orientation: EC50 (read off the curve) means the concentration that produces a half-maximal response.
